Test results: publication PMC5570423, “Structural characterisation of TNRC6A nuclear localisation signal in complex with importin-alpha” (PLoS ONE, 2017)

B1: GST-TNRC6A cNLS P3 mutant (Arg1168Lys) (peptide)
chain: SGKKKRRER
notes: also called P3 TNRC6A mutant; source: E. coli BL21(DE3), purified
B2: GST-TNRC6A cNLS (residues 1164–1172 of mouse TNRC6A, corresponding to residues 1179–1187 of human TNRC6A isoform 1) (peptide)
chain: SGKKRRRER
notes: TNRC6A classical nuclear localisation signal, mouse residues 1164-1172 = human residues 1179-1187 (isoform 1; 926-934 in isoform 2); the motif is strictly conserved between mouse and human; Cloned into pGEX-6P with overlapping oligonucleotides; also called GST-cNLS; GST-NLS; source: E. coli BL21(DE3), purified
B3: GST-TNRC6A cNLS N-term mutant (1164Ser-Gly1165 substituted to prolines) (peptide)
chain: PPKKRRRER
notes: also called TNRC6A N-term mutant; source: E. coli BL21(DE3), purified

These binders were tested against Mouse importin-α1 lacking the IBB domain (mImpα1ΔIBB; residues 70–529) (mouse, UniProt P52293 70-529) (assay: ELISA; solid phase plate binding assay, no cross-linking: MaxiSorp plates coated with 25 nM GST-cNLS or GST in PBS, 0.2 mM PMSF, 2 mM DTT; serial dilutions of S-tagged mImpα1ΔIBB, 1 hr at 4°C; detected with S-protein-HRP; apparent Kd, one-site specific binding, duplicates). Details: both partners purified.
Binder B1 has a Kd of 1880 nM.
With SGKKKRKER (source: E. coli BL21(DE3), purified) [GST-TNRC6A cNLS P3, P5 mutant (Arg1168Lys and Arg1170Lys)] the Kd was 898 nM.
For B2, the Kd was 75.6 nM.
SGKKRRKER (source: E. coli BL21(DE3), purified) [GST-TNRC6A cNLS P5 mutant (Arg1170 to Lys)] was tested, and the Kd was 1140 nM.
B3 was tested, and the Kd was 19 nM.
